One molecule from PMC11211324 (2024) can be followed below.

This experiment addresses KRAS-LgBiT (UniProt P01116 1-189). In words: NanoBiT in 293T cells.

KRAS-LgBiT, sequence (P01116 whole entry): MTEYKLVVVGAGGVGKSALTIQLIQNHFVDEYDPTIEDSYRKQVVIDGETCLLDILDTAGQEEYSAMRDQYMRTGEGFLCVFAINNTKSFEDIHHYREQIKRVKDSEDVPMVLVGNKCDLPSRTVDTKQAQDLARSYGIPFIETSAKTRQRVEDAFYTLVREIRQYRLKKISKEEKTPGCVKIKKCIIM

B1: TKD (nanobody)-SmBiT (VHH)
VHH: DVQLQESGGGLVQAGGSLRLSCVASGRTFSTYPTGWFRQAPGKEREFVARINLSGGITNYADSVKGRFTISRDNAKNTVYLQMNSLKPEDTAVYYCGGGSTTWAGGIPTNFDYWGQGTQVTVSS
Broadly, the Kd is a measure of binding affinity in units of concentration. A higher Kd goes with weaker binding. Consider B1, for which the Kd is 41.3 nM.
